Data published in article PMC4140855, “Production of an Attenuated Phenol-Soluble Modulin Variant Unique to the MRSA Clonal Complex 30 Increases Severity of Bloodstream Infection” (PLoS Pathogens, 2014).
Where no end group is shown, it is not given here. The star is where a group is joined. For = O=C*

What was measured:
Test in all cases: Ca2+ flux in FPR-transfected HL60 cells, one-site binding model
FPR3 = molecular target: T1, FPR3 (Homo sapiens, UniProt P25089)
T1 chain: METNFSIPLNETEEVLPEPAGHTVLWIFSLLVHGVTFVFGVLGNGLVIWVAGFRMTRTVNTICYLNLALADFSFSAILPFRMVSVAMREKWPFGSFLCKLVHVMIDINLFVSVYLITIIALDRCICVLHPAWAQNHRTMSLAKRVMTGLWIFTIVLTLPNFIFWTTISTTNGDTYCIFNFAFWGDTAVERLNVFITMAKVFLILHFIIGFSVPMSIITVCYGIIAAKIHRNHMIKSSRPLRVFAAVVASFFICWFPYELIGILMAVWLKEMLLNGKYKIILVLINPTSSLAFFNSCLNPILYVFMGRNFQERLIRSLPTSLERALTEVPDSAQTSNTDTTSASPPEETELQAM

FPR2 = molecular target: T2, FPR2 (Homo sapiens, UniProt P25090)
T2 chain: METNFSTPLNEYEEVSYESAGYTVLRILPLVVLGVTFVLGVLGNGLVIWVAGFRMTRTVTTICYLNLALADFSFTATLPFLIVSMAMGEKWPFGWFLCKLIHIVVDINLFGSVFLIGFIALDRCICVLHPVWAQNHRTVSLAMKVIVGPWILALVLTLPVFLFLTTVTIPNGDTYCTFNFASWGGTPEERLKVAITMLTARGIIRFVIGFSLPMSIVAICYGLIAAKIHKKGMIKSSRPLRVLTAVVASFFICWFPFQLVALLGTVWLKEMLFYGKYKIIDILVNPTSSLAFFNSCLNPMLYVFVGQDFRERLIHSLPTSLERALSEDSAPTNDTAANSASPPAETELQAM

FPR1 = molecular target: T3, FPR1 (Homo sapiens, UniProt P21462)
T3 chain: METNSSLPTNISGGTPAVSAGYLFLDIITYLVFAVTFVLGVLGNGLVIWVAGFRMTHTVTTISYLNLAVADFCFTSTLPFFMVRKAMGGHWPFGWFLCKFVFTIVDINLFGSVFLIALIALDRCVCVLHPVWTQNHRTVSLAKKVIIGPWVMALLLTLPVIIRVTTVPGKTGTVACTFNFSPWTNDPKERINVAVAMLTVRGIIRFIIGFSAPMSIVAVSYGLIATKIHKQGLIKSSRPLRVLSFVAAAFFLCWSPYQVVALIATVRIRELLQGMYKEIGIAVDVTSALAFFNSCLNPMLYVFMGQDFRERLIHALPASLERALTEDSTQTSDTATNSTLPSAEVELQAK

For-MEFVAKLFKFFKDLLGKFLGNN [PSMα3]
Kd (FPR3): 1380 nM | Kd (FPR2): 11.9 nM | Kd (FPR1): 616 nM
